Assay results reported in PMC3919264, “The crystal structure and biochemical characterization of Kif15: a bifunctional molecular motor involved in bipolar spindle formation and neuronal development” (Acta Crystallographica Section D: Biological Crystallography, 2013).

Molecular target: taxol-polymerized microtubules from bovine brain tubulin (bovine (purified from bovine brain), UniProt Q6B856 1-445)
Assay: cell-based or functional assay

B1: Homo sapiens Kif15 motor domain with cover strand and neck linker (Kif15 1-375) (domain or fragment, human, UniProt Q9NS87 1-375, looked up)
chain: MAPGCKTELRSVTNGQSNQPSNEGDAIKVFVRIRPPAERSGSADGEQNLCLSVLSSTSLRLHSNPEPKTFTFDHVADVDTTQESVFATVAKSIVESCMSGYNGTIFAYGQTGSGKTFTMMGPSESDNFSHNLRGVIPRSFEYLFSLIDREKEKAGAGKSFLCKCSFIEIYNEQIYDLLDSASAGLYLREHIKKGVFVVGAVEQVVTSAAEAYQVLSGGWRNRRVASTSMNRESSRSHAVFTITIESMEKSNEIVNIRTSLLNLVDLAGSERQKDTHAEGMRLKEAGNINRSLSCLGQVITALVDVGNGKQRHVCYRDSKLTFLLRDSLGGNAKTAIIANVHPGSRCFGETLSTLNFAQRAKLIKNKAVVNEDTQG
B1 was tested, and the “MT activation of Mant-ADP release, stopped flow, 25°C, various MT concentrations with chasing Mg2+-ATP (MTs here from pig brain tubulin; preliminary data)” value was roughly 1000 fold.
